{"source": "patent US20220332804A1", "about": "(CSL INNOVATION, published 2022)", "experiment_in_all_cases": "SPR, antibody captured, C2 as analyte;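 further: biacore SPR at 37 °C, anti-C2 mAbs captured via goat anti-human IgG on CM5 chips, double-referenced sensorgrams fit to a 1:1 kinetic or steady-state model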", "key": {"human C2 V448A": {"molecular_target": "T1, human C2 V448A (human, UniProt P06681 21-752)", "T1 sequence": "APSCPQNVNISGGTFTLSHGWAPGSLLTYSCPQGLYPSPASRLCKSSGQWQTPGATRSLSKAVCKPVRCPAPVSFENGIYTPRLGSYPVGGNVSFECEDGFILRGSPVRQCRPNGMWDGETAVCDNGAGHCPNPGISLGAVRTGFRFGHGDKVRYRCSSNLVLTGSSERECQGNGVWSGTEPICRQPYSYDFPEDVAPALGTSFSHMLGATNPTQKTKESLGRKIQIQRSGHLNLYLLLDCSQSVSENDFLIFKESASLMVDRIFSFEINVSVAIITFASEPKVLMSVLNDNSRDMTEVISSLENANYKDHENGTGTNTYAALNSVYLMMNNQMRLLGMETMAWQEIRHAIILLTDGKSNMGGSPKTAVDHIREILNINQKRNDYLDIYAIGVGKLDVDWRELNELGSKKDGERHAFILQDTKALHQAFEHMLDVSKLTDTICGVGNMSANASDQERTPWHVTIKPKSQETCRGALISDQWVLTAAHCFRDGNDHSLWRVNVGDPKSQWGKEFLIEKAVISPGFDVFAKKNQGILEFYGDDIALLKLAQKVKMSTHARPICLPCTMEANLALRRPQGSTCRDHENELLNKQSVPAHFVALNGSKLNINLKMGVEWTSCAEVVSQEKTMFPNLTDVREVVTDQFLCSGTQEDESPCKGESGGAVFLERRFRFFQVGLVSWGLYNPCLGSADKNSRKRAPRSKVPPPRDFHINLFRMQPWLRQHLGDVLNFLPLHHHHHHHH"}, "human C2 G427A": {"molecular_target": "T2, human C2 G427A (human, UniProt P06681 21-752)", "T2 sequence": "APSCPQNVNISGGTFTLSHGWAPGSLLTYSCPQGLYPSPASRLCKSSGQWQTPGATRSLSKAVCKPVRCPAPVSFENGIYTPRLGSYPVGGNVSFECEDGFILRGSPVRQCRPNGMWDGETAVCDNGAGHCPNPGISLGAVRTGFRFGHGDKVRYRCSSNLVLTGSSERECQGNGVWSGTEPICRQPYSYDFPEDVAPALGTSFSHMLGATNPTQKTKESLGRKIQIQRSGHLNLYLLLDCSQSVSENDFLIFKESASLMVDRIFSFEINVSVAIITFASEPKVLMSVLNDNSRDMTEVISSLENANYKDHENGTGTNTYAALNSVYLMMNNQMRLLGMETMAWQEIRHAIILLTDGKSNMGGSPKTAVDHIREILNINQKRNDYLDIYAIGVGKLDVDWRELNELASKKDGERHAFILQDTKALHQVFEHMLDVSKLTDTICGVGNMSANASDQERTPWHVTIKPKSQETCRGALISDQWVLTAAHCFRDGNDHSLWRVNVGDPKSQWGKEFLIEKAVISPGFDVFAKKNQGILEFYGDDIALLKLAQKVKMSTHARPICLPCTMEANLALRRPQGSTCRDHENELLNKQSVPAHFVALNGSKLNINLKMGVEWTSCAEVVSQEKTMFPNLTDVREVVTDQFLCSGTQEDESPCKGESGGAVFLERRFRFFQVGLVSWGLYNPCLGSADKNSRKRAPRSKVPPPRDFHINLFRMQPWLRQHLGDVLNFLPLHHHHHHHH"}, "human C2 N467A": {"molecular_target": "T3, human C2 N467A (human, UniProt P06681 21-752)", "T3 sequence": "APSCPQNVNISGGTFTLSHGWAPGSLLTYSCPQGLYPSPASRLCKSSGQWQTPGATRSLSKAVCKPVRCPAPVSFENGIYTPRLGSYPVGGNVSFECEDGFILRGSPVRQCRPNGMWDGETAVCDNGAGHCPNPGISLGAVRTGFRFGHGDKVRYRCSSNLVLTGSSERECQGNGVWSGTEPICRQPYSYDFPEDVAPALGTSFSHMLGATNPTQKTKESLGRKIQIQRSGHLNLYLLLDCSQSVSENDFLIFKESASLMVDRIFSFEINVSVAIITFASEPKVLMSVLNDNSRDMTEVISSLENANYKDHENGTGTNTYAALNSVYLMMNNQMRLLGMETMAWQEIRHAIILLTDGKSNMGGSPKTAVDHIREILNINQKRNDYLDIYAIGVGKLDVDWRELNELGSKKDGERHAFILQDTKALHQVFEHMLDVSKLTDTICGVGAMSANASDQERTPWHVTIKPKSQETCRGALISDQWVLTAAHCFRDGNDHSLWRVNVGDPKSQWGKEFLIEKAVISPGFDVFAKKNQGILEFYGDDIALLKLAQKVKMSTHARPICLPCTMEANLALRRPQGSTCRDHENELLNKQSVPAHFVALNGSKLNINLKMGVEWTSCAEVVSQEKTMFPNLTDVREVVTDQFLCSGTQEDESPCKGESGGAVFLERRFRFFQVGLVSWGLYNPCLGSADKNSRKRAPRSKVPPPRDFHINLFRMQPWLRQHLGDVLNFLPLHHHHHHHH"}, "human C2 A326S": {"molecular_target": "T4, human C2 A326S (human, UniProt P06681 21-752)", "T4 sequence": "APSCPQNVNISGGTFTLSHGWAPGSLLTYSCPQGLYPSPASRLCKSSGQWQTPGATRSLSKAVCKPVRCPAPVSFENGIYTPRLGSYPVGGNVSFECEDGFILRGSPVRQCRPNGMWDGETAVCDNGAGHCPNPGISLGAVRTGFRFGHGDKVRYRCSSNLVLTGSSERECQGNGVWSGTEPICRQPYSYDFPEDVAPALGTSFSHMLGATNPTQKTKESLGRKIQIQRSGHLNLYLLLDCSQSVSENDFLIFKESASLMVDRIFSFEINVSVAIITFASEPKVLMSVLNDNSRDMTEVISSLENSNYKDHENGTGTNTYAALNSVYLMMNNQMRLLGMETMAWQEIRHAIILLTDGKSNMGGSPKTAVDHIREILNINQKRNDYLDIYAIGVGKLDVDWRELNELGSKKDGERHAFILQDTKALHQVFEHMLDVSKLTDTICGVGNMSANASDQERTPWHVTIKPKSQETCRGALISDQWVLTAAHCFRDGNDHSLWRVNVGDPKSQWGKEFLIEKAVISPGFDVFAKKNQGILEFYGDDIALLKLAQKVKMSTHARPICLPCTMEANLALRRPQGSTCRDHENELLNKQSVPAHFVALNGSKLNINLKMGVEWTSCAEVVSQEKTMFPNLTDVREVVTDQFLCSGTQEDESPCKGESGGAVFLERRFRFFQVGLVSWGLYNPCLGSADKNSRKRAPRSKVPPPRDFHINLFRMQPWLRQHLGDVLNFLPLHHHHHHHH"}}}
{"binder": "RF16-226 (antibody, human IgG4 S228P, lambda, pH-dependent anti-C2 antibody from a phage display library; also called WT) heavy: not shown light: SYELTQPPSVSVSPGQTARITCSGDALTSKYVAWYQQKSGLAPLLVIYEDTRRPSGIPAKFSGSSSGSVATLTISGAHGDDEADYYCYSTDASGHQRVFGGGTKLTVLSQPKAAPSVTLFPPSSEELQANKATLVCLISDFYPGAVTVAWKADGSPVKAGVETTKPSKQSNNKYAASSYLSLTPEQWKSHRSYSCQVTHEGSTVEKTVAPTECS", "values": [{"measurement": "Kd", "setting": "human C2 V448A", "value": 4.4, "unit": "nM"}, {"measurement": "Kd", "setting": "human C2 G427A", "value": 4.2, "unit": "nM"}, {"measurement": "Kd", "setting": "human C2 N467A", "value": 19.7, "unit": "nM"}, {"measurement": "Kd", "setting": "human C2 A326S", "value": 13.2, "unit": "nM"}]}
